Assay results taken from paper PMC8833744, “Strategic Decoy Peptides Interfere with MSI1/AGO2 Interaction to Elicit Tumor Suppression Effects” (Cancers, 2022).

Biological target: T1, recombinant His-tagged AGO2 (UniProt Q9UKV8 1-859)
T1 construct: AGO2 (argonaute 2); Detected on the array by an HRP-conjugated 6xHis antibody; amine-coupled to a CM5 chip in the SPR; also called His-AGO2; AGO2 recombinant protein; source: recombinant, purified
Assay: SPR; Biacore T200; His-AGO2 immobilised on a CM5 chip by amine coupling (~7000 RU); peptides 20 to 1280 nM in HBS-P (10 mM HEPES, 150 mM NaCl, 0.005% T20, pH 7.4), 30 µL/min; Langmuir 1:1 model
Details: both partners purified

T1 sequence (Q9UKV8 whole entry): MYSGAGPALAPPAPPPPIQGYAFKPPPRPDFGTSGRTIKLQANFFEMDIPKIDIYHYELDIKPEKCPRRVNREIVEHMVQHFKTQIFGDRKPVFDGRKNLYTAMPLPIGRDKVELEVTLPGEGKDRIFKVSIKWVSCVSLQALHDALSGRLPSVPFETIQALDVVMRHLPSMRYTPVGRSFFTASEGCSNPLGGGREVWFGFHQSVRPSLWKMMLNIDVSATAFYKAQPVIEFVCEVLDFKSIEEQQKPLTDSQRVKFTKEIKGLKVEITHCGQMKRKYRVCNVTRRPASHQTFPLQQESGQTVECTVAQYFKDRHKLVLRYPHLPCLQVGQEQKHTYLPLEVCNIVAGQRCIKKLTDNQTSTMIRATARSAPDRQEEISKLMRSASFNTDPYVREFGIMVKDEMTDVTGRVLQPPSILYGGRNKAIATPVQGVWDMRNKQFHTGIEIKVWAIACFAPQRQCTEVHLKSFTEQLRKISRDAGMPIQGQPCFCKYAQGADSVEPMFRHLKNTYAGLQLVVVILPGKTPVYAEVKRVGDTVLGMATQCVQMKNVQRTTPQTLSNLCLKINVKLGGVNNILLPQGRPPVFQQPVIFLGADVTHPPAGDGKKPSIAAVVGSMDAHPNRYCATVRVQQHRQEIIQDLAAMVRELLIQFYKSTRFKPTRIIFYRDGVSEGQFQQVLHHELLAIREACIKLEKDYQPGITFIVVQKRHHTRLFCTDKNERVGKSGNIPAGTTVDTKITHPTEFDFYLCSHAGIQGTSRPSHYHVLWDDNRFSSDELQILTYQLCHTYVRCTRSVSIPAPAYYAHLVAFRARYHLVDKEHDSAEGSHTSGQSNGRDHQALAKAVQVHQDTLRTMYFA

| Binder | Kd [nM] |
| --- | --- |
| HSLGGPLIATAFTNG [Pep#26 (decoy peptide as used in the SPR)] | 674 |
| YQFPEFRVERTPLPS [Pep#11 (decoy peptide as used in the SPR)] | 515 |
